Data published in IntAct's records for PubMed 17540176.

B1: Serine/threonine-protein phosphatase 2A 65 kDa regulatory subunit A beta isoform (Homo sapiens), P30154 (parent)
chain: MAGASELGTGPGAAGGDGDDSLYPIAVLIDELRNEDVQLRLNSIKKLSTIALALGVERTRSELLPFLTDTIYDEDEVLLALAEQLGNFTGLVGGPDFAHCLLPPLENLATVEETVVRDKAVESLRQISQEHTPVALEAYFVPLVKRLASGDWFTSRTSACGLFSVCYPRASNAVKAEIRQQFRSLCSDDTPMVRRAAASKLGEFAKVLELDSVKSEIVPLFTSLASDEQDSVRLLAVEACVSIAQLLSQDDLETLVMPTLRQAAEDKSWRVRYMVADRFSELQKAMGPKITLNDLIPAFQNLLKDCEAEVRAAAAHKVKELGENLPIEDRETIIMNQILPYIKELVSDTNQHVKSALASVIMGLSTILGKENTIEHLLPLFLAQLKDECPDVRLNIISNLDCVNEVIGIRQLSQSLLPAIVELAEDAKWRVRLAIIEYMPLLAGQLGVEFFDEKLNSLCMAWLVDHVYAIREAATNNLMKLVQKFGTEWAQNTIVPKVLVMANDPNYLHRMTTLFCINALSEACGQEITTKQMLPIVLKMAGDQVANVRFNVAKSLQKIGPILDTNALQGEVKPVLQKLGQDEDMDVKYFAQEAISVLALA
B2: Serine/threonine-protein phosphatase 2A 65 kDa regulatory subunit A beta isoform (Homo sapiens), P30154 (parent)
chain: B1 chain
partner: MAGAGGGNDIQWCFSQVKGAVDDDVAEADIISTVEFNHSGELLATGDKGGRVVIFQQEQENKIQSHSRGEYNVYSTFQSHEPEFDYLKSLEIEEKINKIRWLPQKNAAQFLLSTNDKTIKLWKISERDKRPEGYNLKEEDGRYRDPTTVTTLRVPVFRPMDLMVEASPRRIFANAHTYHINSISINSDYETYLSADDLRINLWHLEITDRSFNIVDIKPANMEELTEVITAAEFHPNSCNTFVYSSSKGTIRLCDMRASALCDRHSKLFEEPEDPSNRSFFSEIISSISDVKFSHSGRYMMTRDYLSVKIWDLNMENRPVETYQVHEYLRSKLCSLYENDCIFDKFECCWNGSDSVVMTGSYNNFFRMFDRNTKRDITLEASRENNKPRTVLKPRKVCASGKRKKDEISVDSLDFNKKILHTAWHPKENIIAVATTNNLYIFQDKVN
B3: Ras-related protein Ral-A (Homo sapiens), P11233 (parent)
chain: MAANKPKGQNSLALHKVIMVGSGGVGKSALTLQFMYDEFVEDYEPTKADSYRKKVVLDGEEVQIDILDTAGQEDYAAIRDNYFRSGEGFLCVFSITEMESFAATADFREQILRVKEDENVPFLLVGNKSDLEDKRQVSVEEAKNRAEQWNVNYVETSAKTRANVDKVFFDLMREIRARKMEDSKEKNGKKKRKSLAKRIRERCCIL
B4: Serine/threonine-protein phosphatase 2A 65 kDa regulatory subunit A beta isoform (Homo sapiens), P30154 (parent)
chain: B1 chain
partner: B3 chain

Variants of: B1
Settings: with pp2aa_human PPP2CA

Effect of a mutation on the interaction, decreasing interaction:
L101P
L101P;V448A
V448A

Variants of: B1
Settings: with 2a5a_human PPP2R5A

Effect of a mutation on the interaction, decreasing interaction:
L101P
L101P;V448A
V448A

Variants of: B1
Settings: with 2a5g_human PPP2R5C

Effect of a mutation on the interaction, decreasing interaction:
L101P
L101P;V448A
V448A
K343E
D504G
V545A

Variants of: B1
Settings: with 2a5d_human PPP2R5D

Effect of a mutation on the interaction, decreasing interaction:
L101P
L101P;V448A
V448A
V545A

Variants of: B2
Settings: with 2aba_human PPP2R2A

Effect of a mutation on the interaction, decreasing interaction:
L101P;V448A

Variants of: B3
Settings: with 2aab_human PPP2R1B

Effect of a mutation on the interaction, decreasing interaction:
MAANKPKGQNSLALHKVIMVGSGGVGKSALTLQFMYDEFVEDYEPTKADSYRKKVVLDGEEVQIDILDTAGQEDYAAIRDNYFRSGEGFLCVFSITEMESFAATADFREQILRVKEDENVPFLLVGNKSDLEDKRQVSVEEAKNRAEQWNVNYVETSAKTRANVDKVFFDLMREIRARKMEDAKEKNGKKKRKSLAKRIRERCCIL [S183A]
MAANKPKGQNSLALHKVIMVGSGGVGKSALTLQFMYDEFVEDYEPTKADSYRKKVVLDGEEVQIDILDTAGQEDYAAIRDNYFRSGEGFLCVFSITEMESFAATADFREQILRVKEDENVPFLLVGNKSDLEDKRQVSVEEAKNRAEQWNVNYVETSAKTRANVDKVFFDLMREIRARKMEDSKEKNGKKKRKALAKRIRERCCIL [S194A]

Variants of: B4
Settings: with rala_human RALA

Effect of a mutation on the interaction, decreasing interaction:
G8R
V448A
V545A
